Assay results from patent US11078242 (SOTIRA COVID, dated 2021).

Assays:
[1] = target: T1, angiotensin converting enzyme-2 (ACE-2), full-length ACE-2 protein (UniProt Q9BYF1 18-740); assay: FITC-labeled ACIS (FIG. 4B)
T1 construct: also called ACE-2 enzyme; ACE-2 receptor

[2] = target: T1, angiotensin converting enzyme-2 …; assay: fluorescence polarization; FITC-tagged ACIS peptide titrated with hACE-2

T1 sequence (Q9BYF1 18-740 limits assumed): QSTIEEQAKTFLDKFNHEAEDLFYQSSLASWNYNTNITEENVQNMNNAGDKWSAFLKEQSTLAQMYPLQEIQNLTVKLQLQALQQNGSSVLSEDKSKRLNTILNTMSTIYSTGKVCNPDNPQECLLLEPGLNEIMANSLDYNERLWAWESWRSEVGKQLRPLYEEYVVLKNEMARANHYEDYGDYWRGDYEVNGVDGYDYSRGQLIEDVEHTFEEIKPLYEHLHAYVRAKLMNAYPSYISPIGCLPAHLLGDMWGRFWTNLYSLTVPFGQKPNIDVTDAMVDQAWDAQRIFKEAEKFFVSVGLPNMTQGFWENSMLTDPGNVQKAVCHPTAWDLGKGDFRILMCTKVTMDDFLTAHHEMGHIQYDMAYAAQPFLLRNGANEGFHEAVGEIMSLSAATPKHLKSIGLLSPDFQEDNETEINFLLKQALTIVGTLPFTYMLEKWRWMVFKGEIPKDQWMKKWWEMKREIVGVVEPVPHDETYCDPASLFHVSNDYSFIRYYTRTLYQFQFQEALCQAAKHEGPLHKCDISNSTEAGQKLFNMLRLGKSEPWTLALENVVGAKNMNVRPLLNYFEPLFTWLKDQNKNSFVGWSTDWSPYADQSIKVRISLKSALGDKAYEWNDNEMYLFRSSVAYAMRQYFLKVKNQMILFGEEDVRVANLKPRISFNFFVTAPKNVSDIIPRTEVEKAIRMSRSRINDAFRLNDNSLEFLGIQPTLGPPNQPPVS

B1: KEPTIDE2 (FITC tagged KEPTIDE; ACIS peptide tagged with FITC probe at C-terminal end) (peptide)
peptide: FQPTNGVGYQPYGK
modifications: FITC at the C-terminal end (on the C-terminal lysine tag according to paragraph 109)
notes: also called FITC-tagged ACIS peptide; FITC-labeled ACIS
With B1 the IC50 [1] was 24.5 nM, the “EC50 (read off the curve)” value [2] was roughly 6 nM and the Kd [2] was 6.38 nM.
